The record followed here is PMC8882475.

pKd: −log10 of the molar value. Some results are limits rather than exact numbers.

Test in all cases: BLI
(Biolayer interferometry detects binding as a change in optical thickness at a sensor tip.)

Experiment [1] addresses biotinylated SARS-CoV-2 S protein RBD, Beta variant (K417N, E484K, N501Y) (SARS-CoV-2) (UniProt P0DTC2).
The target of experiment [2] is SARS-CoV-2 S1 protein (SARS-CoV-2).
Experiment [3] addresses SARS-CoV-2 RBD (original, WT) (SARS-CoV-2) (UniProt P0DTC2).
Experiment [4] addresses SARS-CoV-2 RBD, Beta (K417N, E484K, N501Y) (SARS-CoV-2) (UniProt P0DTC2).
In experiment [5] the target is SARS-CoV-2 RBD, Delta (L452R, T478K) (SARS-CoV-2) (UniProt P0DTC2).
Experiment [6] has as its target SARS-CoV-2 RBD, Gamma (K417T, E484K, N501Y) (SARS-CoV-2) (UniProt P0DTC2).
Experiment [7] deals with SARS-CoV-2 RBD, Lambda (L452Q, F490S) (SARS-CoV-2) (UniProt P0DTC2).
Experiment [8] has as its target SARS-CoV-2 RBD, Kappa (L452R, E484Q) (SARS-CoV-2) (UniProt P0DTC2).
Experiment [9] deals with SARS-CoV-2 spike trimer, full-length extracellular domain (ECD), His tagged (SARS-CoV-2) (UniProt P0DTC2).
The target of experiment [10] is SARS-CoV-2 RBD, Alpha (N501Y) (SARS-CoV-2) (UniProt P0DTC2).
The target of the next experiment is Bamlanivimab.
Experiment [11] has as its target SI–F019, huACE2 (18–615) - IgG1 Fc null (human) (UniProt Q9BYF1).

Turning to Tixagevimab (antibody), in experiment [1], the pKd (in general, −log10 of the Kd, conventionally taken in molar units) was greater than 12.00.

For “SI–F019, huACE2 (18–615) - IgG1 Fc null (from UniProt Q9BYF1-1 18-615) (Fc fusion)”, the pKd in [2] is 9.54; in experiment [3], 9.94; in experiment [4], 10.20; in experiment [5] it was 10.85; in [6], 10.21; in [7] it was 10.05. Also, the pKd in experiment [8] is greater than 12.00; in [9] it was 9.74; in experiment [10], 10.72.

Regarding “SARS-CoV-2 S protein RBD, Delta variant (L452R, T478K) (from UniProt P0DTC2) (domain or fragment)”, in the experiment with Bamlanivimab, the pKd is 8.44.

In experiment [11], “SARS-CoV-2 RBD, Delta (L452R, T478K) (from UniProt P0DTC2) (domain or fragment)” showed a pKd of 8.14.

Consider “SARS-CoV-2 S1 protein (domain or fragment)”, for which, in experiment [11], the pKd is 7.83; the koff – broadly, the first-order rate constant of dissociation – is 0.00493 s⁻¹; the kon (usually a measure of how fast the partners come together) is 337000 M⁻¹ s⁻¹.

The substance Imdevimab (antibody) gave a pKd in experiment [1] greater than 12.00.

Turning to “SARS-CoV-2 RBD, Lambda (L452Q, F490S) (from UniProt P0DTC2) (domain or fragment)”, the pKd in [11] is 7.87.
